Substitutions are numbered along the chain they refer to.
Assays:
Conditions in all cases: protein: recombinant; tags: His6-thioredoxin removed by TEV; blunt
CadC1-107 (DBD) [1] = biological target: T1, CadC1-107 (DBD) (Escherichia coli, UniProt P23890 1-107); assay: NMR titration; 1:1 model; EMSA/NMR/ITC: 20 mM BisTris, 150 mM NaCl, pH 6.5, RT (NMR 10% D2O, 298 K; imino spectra 283 K); SPR: 10 mM HEPES pH 7.4, 150 mM NaCl, 3 mM EDTA, 0.05% P20, 25 C
T1 sequence: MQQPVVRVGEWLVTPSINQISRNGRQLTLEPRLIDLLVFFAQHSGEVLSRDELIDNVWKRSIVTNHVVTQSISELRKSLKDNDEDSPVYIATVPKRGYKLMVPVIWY

CadC1-159 WT [2] = biological target: T2, CadC1-159 WT (Escherichia coli, UniProt P23890 1-159); assay: SPR; steady state; construct called CadC DBD in legend, CadC1-159 in Methods; EMSA/NMR/ITC: 20 mM BisTris, 150 mM NaCl, pH 6.5, RT (NMR 10% D2O, 298 K; imino spectra 283 K); SPR: 10 mM HEPES pH 7.4, 150 mM NaCl, 3 mM EDTA, 0.05% P20, 25 C
T2 sequence: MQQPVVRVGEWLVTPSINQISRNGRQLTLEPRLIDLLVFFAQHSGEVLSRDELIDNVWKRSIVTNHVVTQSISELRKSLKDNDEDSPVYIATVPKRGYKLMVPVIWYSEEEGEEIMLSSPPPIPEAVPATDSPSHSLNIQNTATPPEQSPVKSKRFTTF

CadC1-107 (DBD) [3] = biological target: T1, CadC1-107 (DBD); assay: NMR; EMSA/NMR/ITC: 20 mM BisTris, 150 mM NaCl, pH 6.5, RT (NMR 10% D2O, 298 K; imino spectra 283 K); SPR: 10 mM HEPES pH 7.4, 150 mM NaCl, 3 mM EDTA, 0.05% P20, 25 C
CadC1-107 (DBD) [4] = biological target: T1, CadC1-107 (DBD); assay: NMR; smaller imino CSPs, line broadening; EMSA/NMR/ITC: 20 mM BisTris, 150 mM NaCl, pH 6.5, RT (NMR 10% D2O, 298 K; imino spectra 283 K); SPR: 10 mM HEPES pH 7.4, 150 mM NaCl, 3 mM EDTA, 0.05% P20, 25 C
CadC1-107 (DBD) [5] = biological target: T1, CadC1-107 (DBD); assay: EMSA; identical to 41-mer; value only in figure; EMSA/NMR/ITC: 20 mM BisTris, 150 mM NaCl, pH 6.5, RT (NMR 10% D2O, 298 K; imino spectra 283 K); SPR: 10 mM HEPES pH 7.4, 150 mM NaCl, 3 mM EDTA, 0.05% P20, 25 C
CadC1-159 E30R = biological target: T3, CadC1-159 E30R (Escherichia coli, UniProt P23890 1-159, E30R); assay: SPR; almost 30-fold; EMSA/NMR/ITC: 20 mM BisTris, 150 mM NaCl, pH 6.5, RT (NMR 10% D2O, 298 K; imino spectra 283 K); SPR: 10 mM HEPES pH 7.4, 150 mM NaCl, 3 mM EDTA, 0.05% P20, 25 C
T3 sequence: T2 sequence with E30R

CadC1-159 WT [6] = biological target: T2, CadC1-159 WT; assay: SPR; steady state; EMSA/NMR/ITC: 20 mM BisTris, 150 mM NaCl, pH 6.5, RT (NMR 10% D2O, 298 K; imino spectra 283 K); SPR: 10 mM HEPES pH 7.4, 150 mM NaCl, 3 mM EDTA, 0.05% P20, 25 C

B1: Cad1 17-mer (dsDNA)
DNA 1: TAAACATTAAATGTTTA
DNA 2: TAAACATTTAATGTTTA
How did the Kd (CadC1-107 (DBD) [1]) turn out when B1 was run?
The Kd was 67 ± 16 µM.

B2: Cad1 17-mer, biotinylated (SPR) (dsDNA)
DNA 1: TAAACATTAAATGTTTA
DNA 2: TAAACATTTAATGTTTA
Which Kd (CadC1-159 WT [2]) does the source give for B2 here?
The Kd was 23 µM.

B3: Cad1A 14-mer (dsDNA)
DNA 1: GTAAACATTAAATG
DNA 2: CATTTAATGTTTAC
Does B3 bind (CadC1-107 (DBD) [3])?
Result: binds

B4: Cad1B 13-mer (dsDNA)
DNA 1: GTTTATCTTTTCA
DNA 2: TGAAAAGATAAAC
Does B4 bind (CadC1-107 (DBD) [3])?
Result: binds

B5: Cad1C 13-mer (dsDNA)
DNA 1: TGATATCAACTTG
DNA 2: CAAGTTGATATCA
Does B5 bind (CadC1-107 (DBD) [4])?
Result: binds

B6: Cad1AB 26-mer (dsDNA)
DNA 1: GTAAACATTAAATGTTTATCTTTTCA
DNA 2: TGAAAAGATAAACATTTAATGTTTAC
Does B6 bind (CadC1-107 (DBD) [5])?
Result: binds

B7: Cad1 41-mer, biotinylated (SPR) (dsDNA)
DNA 1: TTGTAAACATTAAATGTTTATCTTTTCATGATATCAACTTG
DNA 2: CAAGTTGATATCATGAAAAGATAAACATTTAATGTTTACAA
With B7 as the binder, how does the binding signal (CadC1-159 E30R) read?
The binding signal was ~30 fold increased affinity vs WT.

And the Kd (CadC1-159 WT [6])?
The Kd was 0.38 µM.

Source: publication PMC5430869, “Structure-function analysis of the DNA-binding domain of a transmembrane transcriptional activator”
